Measured values taken from publication PMC13066097 (Nature Communications, 2026).

Columns and labels:
[1] = molecular target: T1, recombinant PcrV protein (rePcrV) coated on ELISA plates (Pseudomonas aeruginosa, strain not told …); experiment: ELISA
T1 chain: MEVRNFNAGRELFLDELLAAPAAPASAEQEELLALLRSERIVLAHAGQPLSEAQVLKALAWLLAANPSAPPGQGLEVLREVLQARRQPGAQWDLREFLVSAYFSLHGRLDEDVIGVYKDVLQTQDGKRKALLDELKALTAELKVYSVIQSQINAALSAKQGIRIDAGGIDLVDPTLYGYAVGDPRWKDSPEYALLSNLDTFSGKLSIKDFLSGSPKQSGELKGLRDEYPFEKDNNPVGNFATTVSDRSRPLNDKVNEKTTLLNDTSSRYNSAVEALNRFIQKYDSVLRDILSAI

[2] = molecular target: T2, 6xHis-tagged PcrV of P. aeruginosa clinical isolate KN41 expressed in E. coli (Pseudomonas aeruginosa KN41 (ST235), strain); experiment: immunoblot
T2 chain: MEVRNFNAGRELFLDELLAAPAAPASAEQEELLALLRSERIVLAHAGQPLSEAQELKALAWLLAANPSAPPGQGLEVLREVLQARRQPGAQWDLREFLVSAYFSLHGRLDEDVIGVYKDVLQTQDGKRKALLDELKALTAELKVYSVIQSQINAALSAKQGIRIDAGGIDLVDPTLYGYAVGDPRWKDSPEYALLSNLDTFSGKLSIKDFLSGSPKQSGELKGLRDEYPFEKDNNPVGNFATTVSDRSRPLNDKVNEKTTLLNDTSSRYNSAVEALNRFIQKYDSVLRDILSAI

[3] = molecular target: 6xHis-tagged PcrV of P. aeruginosa clinical isolate KN15 expressed in E. coli (Pseudomonas aeruginosa KN15 (ST512), strain); experiment: immunoblot
[4] = molecular target: 6xHis-tagged PcrV of P. aeruginosa clinical isolate KN34 expressed in E. coli (Pseudomonas aeruginosa KN34 (ST186), strain); experiment: immunoblot
[5] = molecular target: T3, 6xHis-tagged PcrV of P. aeruginosa clinical isolate KN27 expressed in E. coli (Pseudomonas aeruginosa KN27 (ST235), strain); experiment: immunoblot
T3 chain: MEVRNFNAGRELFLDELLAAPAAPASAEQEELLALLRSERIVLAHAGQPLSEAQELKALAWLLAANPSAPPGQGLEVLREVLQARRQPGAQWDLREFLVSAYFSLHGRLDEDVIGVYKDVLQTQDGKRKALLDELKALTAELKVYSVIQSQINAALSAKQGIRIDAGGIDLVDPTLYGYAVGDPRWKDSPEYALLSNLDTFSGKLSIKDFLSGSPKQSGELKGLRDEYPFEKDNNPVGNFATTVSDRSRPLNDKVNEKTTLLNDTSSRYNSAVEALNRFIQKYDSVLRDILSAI

[6] = molecular target: 6xHis-tagged PcrV of P. aeruginosa clinical isolate KN33 expressed in E. coli (Pseudomonas aeruginosa KN33 (ST508), strain); experiment: immunoblot
[7] = molecular target: T4, 6xHis-tagged PcrV of P. aeruginosa clinical isolate KP2401 expressed in E. coli (Pseudomonas aeruginosa KP2401 (ST5295), strain); experiment: immunoblot
T4 chain: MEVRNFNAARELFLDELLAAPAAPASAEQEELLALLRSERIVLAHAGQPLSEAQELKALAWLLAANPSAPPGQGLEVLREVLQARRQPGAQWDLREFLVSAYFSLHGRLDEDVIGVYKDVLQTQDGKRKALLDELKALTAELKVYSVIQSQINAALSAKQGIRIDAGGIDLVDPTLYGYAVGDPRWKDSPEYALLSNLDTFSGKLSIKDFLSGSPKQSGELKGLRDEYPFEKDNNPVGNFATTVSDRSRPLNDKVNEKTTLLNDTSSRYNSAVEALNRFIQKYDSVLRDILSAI

[8] = molecular target: T5, 6xHis-tagged PcrV of P. aeruginosa clinical isolate KN5 expressed in E. coli (Pseudomonas aeruginosa KN5 (ST357), strain); experiment: immunoblot
T5 chain: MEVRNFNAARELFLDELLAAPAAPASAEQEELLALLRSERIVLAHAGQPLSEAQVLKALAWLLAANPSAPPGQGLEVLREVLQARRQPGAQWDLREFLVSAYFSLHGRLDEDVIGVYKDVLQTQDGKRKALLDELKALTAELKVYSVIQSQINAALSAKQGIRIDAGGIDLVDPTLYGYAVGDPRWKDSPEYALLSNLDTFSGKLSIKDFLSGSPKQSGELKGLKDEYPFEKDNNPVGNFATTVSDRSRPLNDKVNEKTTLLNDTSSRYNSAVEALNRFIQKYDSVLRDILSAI

[9] = molecular target: T6, 6xHis-tagged PcrV of P. aeruginosa clinical isolate KN28 expressed in E. coli (Pseudomonas aeruginosa KN28 (ST357), strain); experiment: immunoblot
T6 chain: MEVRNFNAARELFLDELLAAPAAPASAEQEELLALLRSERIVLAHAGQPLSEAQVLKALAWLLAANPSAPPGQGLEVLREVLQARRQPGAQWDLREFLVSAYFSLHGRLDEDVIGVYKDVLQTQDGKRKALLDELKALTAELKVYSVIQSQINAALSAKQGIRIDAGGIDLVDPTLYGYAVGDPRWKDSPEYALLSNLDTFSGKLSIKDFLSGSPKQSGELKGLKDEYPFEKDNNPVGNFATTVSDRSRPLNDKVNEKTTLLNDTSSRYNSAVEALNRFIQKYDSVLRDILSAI

[10] = molecular target: 6xHis-tagged PcrV of P. aeruginosa clinical isolate KN37 expressed in E. coli (Pseudomonas aeruginosa KN37 (ST244), strain); experiment: immunoblot
[11] = molecular target: T7, 6xHis-tagged PcrV of P. aeruginosa clinical isolate KN17 expressed in E. coli (Pseudomonas aeruginosa KN17 (ST357), strain); experiment: immunoblot
T7 chain: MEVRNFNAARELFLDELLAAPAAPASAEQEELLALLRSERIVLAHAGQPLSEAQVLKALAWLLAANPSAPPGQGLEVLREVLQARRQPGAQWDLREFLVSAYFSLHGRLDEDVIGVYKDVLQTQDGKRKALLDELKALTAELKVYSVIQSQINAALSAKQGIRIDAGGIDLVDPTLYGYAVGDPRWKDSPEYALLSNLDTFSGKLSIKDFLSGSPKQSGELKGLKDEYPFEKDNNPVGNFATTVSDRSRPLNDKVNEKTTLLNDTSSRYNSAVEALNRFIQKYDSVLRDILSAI

[12] = molecular target: PcrV of P. aeruginosa clinical isolate KN15, from bacterial culture (Pseudomonas aeruginosa KN15 (ST512), strain); experiment: immunoblot
[13] = molecular target: T8, PcrV of P. aeruginosa clinical isolate KN28, from bacterial culture (Pseudomonas aeruginosa KN28 (ST357); …, strain); experiment: immunoblot
T8 chain: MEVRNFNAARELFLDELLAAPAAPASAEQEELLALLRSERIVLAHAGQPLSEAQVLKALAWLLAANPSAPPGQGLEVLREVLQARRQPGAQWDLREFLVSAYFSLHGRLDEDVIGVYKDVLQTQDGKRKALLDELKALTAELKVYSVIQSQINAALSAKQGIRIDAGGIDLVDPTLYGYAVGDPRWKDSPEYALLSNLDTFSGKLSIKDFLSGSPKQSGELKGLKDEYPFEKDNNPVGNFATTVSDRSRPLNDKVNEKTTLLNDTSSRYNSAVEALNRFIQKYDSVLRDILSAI

[14] = molecular target: T9, PcrV of P. aeruginosa clinical isolate KN27, from bacterial culture (Pseudomonas aeruginosa KN27 (ST235), strain); experiment: immunoblot
T9 chain: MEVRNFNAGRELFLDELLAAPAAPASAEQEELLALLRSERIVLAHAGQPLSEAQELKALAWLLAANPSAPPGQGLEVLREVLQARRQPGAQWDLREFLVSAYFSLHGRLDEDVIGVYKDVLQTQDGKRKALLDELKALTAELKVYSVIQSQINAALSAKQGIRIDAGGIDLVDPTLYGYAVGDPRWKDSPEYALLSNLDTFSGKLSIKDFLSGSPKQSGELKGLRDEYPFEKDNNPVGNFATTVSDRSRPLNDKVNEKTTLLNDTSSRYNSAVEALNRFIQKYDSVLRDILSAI

[15] = molecular target: T10, PcrV of P. aeruginosa clinical isolate KN5, from bacterial culture (Pseudomonas aeruginosa KN5 (ST357), strain); experiment: immunoblot
T10 chain: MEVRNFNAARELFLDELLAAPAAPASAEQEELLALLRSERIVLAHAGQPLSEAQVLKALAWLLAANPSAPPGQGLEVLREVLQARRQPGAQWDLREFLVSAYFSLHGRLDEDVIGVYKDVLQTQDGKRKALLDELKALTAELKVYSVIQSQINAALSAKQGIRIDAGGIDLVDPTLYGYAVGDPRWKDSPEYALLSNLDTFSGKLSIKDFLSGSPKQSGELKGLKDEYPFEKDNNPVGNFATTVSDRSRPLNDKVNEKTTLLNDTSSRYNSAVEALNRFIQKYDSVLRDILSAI

[16] = molecular target: T11, PcrV of P. aeruginosa clinical isolate KP2401, from bacterial culture (Pseudomonas aeruginosa KP2401 (ST5295), strain); experiment: immunoblot
T11 chain: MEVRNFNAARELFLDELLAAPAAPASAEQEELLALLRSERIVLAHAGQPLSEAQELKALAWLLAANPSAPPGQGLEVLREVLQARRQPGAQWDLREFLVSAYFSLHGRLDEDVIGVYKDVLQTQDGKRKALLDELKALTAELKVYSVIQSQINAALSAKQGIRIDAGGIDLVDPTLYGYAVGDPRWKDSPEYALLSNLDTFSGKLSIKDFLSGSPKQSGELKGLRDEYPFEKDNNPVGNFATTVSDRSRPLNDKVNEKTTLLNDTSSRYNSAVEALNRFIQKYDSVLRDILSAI

[17] = molecular target: PcrV of P. aeruginosa clinical isolate KN33, from bacterial culture (Pseudomonas aeruginosa KN33 (ST508), UniProt G3XD49, strain); experiment: immunoblot
[18] = molecular target: PcrV of P. aeruginosa clinical isolate KN37, from bacterial culture (Pseudomonas aeruginosa KN37 (ST244), UniProt G3XD49, strain); experiment: immunoblot
[19] = molecular target: T12, PcrV of P. aeruginosa clinical isolate KN17, from bacterial culture (Pseudomonas aeruginosa clinical isolate …, strain); experiment: immunoblot
T12 chain: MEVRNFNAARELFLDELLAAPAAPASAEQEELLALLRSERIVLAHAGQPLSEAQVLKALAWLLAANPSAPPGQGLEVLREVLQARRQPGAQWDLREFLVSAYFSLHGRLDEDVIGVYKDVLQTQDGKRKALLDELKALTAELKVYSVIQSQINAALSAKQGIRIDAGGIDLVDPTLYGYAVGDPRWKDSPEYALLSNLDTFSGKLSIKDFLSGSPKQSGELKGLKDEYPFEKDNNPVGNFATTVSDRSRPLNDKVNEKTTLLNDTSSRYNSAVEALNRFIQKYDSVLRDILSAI

[20] = molecular target: T13, PcrV of P. aeruginosa clinical isolate KN41, from bacterial culture (Pseudomonas aeruginosa KN41 (ST235), strain); experiment: immunoblot
T13 chain: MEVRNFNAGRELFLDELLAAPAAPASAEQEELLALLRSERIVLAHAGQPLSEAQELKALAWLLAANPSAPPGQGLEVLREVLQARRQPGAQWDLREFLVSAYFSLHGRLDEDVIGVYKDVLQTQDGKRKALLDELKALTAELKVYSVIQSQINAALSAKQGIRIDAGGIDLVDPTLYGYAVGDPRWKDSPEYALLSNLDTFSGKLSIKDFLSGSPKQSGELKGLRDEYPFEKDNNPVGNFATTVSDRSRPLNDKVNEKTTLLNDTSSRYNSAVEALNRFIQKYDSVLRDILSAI

[21] = molecular target: PcrV of P. aeruginosa strain PAO1, from bacterial culture (Pseudomonas aeruginosa PAO1); experiment: immunoblot
[22] = molecular target: PcrV of P. aeruginosa clinical isolate KN34, from bacterial culture (Pseudomonas aeruginosa KN34 (ST186), UniProt G3XD49, strain); experiment: immunoblot

B1: anti-PcrV scFv antibody scFv-m166 (recombinant protein) (scFv, V domains shown)
VH: QVQLKQSGPGLVQPSQSLSITCTVSGFSLTSYGVHWVRQSPGKGLEWLGVIWSGGDTDYNAAFISRLSISKDNSKSQLFFKMNSLRATDTAIYYCARNRGDIYYDFTYAMDYWGQGTSVTVSS
VL: DIQMTQSPASLSASVGETVTITCRASGNIQNYLAWYQQTQGKSPQLLVYSAKTLADGVPSRFSGSGSGTQYSLKINSLQPEDFGSYYCQHFWSTPYTFGGGTKLEIK
EC50 [1]: 35 nM

B2: murine monoclonal anti-PcrV IgG mAb166 (antibody, V domains shown)
VH: QVQLKQSGPGLVQPSQSLSITCTVSGFSLTSYGVHWVRQSPGKGLEWLGVIWSGGDTDYNAAFISRLSISKDNSKSQLFFKMNSLRATDTAIYYCARNRGDIYYDFTYAMDYWGQGTSVTVSS
VL: DIQMTQSPASLSASVGETVTITCRASGNIQNYLAWYQQTQGKSPQLLVYSAKTLADGVPSRFSGSGSGTQYSLKINSLQPEDFGSYYCQHFWSTPYTFGGGTKLEIK
binding result [2]: binds
binding result [3]: binds
binding result [4]: binds
binding result [5]: binds
binding result [6]: binds
binding result [7]: binds
binding result [8]: binds
binding result [9]: binds
binding result [10]: binds
binding result [11]: binds
binding result [12]: binds
binding result [13]: binds
binding result [14]: binds
binding result [15]: binds
binding result [16]: binds
binding result [17]: binds
binding result [18]: binds
binding result [19]: binds
binding result [20]: binds
binding result [21]: binds
binding result [22]: binds

B3: anti-PcrV scFv conjugated with the mouse IgG1 hinge, CH2 and CH3 domains, scFv-m166-mFc (recombinant protein) (Fc fusion)
VH: QVQLKQSGPGLVQPSQSLSITCTVSGFSLTSYGVHWVRQSPGKGLEWLGVIWSGGDTDYNAAFISRLSISKDNSKSQLFFKMNSLRATDTAIYYCARNRGDIYYDFTYAMDYWGQGTSVTVSS
VL: DIQMTQSPASLSASVGETVTITCRASGNIQNYLAWYQQTQGKSPQLLVYSAKTLADGVPSRFSGSGSGTQYSLKINSLQPEDFGSYYCQHFWSTPYTFGGGTKLEIK
EC50 [1]: 57.2 nM
